Measurements reported in the supplement of paper PMC10567573.

B1: NCF4 (parent)
chain: FGPDSKSSALACTLPTLPAKVYVG

Variants of: B1
Experiment: protein stability index of a GFP-peptide fusion (GPS, HEK-293T) (PSI 1-6); higher = more stable
Conditions: c terminus: a fixed tail appended
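Further: lentivirally expressed fusions sorted by FACS into six bins by GFP to DsRed ratio, PSI derived from sequencing read proportions per bin multiplied by bin number.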

Protein stability index, by site and new letter:
P18: A 2.98 | F 2.02 | E 2.23 | R 1.61 | G 2.12 | S 1.65 | Y 2.42 | M 1.75 | C 1.52 | I 3.81 | T 2.03 | K 2.15 | N 2.24 | Q 2.02 | D 2.71 | V 1.55 | W 2.77 | L 1.65 | H 2.26
L17: H 2.09 | I 1.88 | A 2.39 | Y 1.54 | F 2 | W 1.88 | M 2.24 | E 2.64 | T 2.43 | N 2.27 | C 2.14 | D 2.76 | R 2.2 | P 2.6 | V 2.29 | Q 3.03 | G 2.59 | S 2.16 | K 2.54
K20: N 2.49 | D 2.64 | C 2.48 | G 2.38 | V 1.81 | I 2.76 | R 2 | W 2.15 | H 2.19 | E 2.13 | A 2.01 | T 1.98 | P 2.35 | M 1.64 | S 2.31 | Q 2.08 | F 2.48 | Y 2.58
A19: F 2.35 | Y 1.95 | I 1.87 | N 2.31 | C 1.74 | Q 1.91 | M 1.55 | V 2.76 | K 2.38 | R 2.47 | G 2.58 | L 1.41 | W 1.26 | T 2.05 | D 2.6 | E 2.56 | S 2.14 | P 2.46 | H 2.17
T13: S 2.44 | V 1.79 | W 3.59 | Y 1.86
L14: T 2.54 | Y 1.86 | A 2.68 | W 1.51 | Q 2.25 | V 2.11 | I 2.15 | H 2.19 | K 2.55 | F 2.25 | M 2.77 | D 2.84 | E 2.76 | G 2.66 | N 2.32 | R 2.32 | S 2.86 | C 1.77
P15: F 3.49 | L 1.8 | M 1.86 | V 1.99 | N 1.85 | E 2.29 | Q 1.89 | R 1.61 | K 1.86 | S 1.95 | H 1.67 | C 2.19 | W 3.34 | A 1.5 | I 3.1 | Y 2.87 | G 1.61 | D 1.53 | T 1.59
T16: E 2.4 | C 2.02 | W 3.26 | V 2.08 | G 1.88 | Y 2.45 | N 2.06 | D 2.45 | I 1.66 | H 2.2 | F 2.38 | A 2 | K 2.33 | M 1.76 | S 2.41 | R 1.97 | Q 2.2 | L 1.73 | P 2.05
Y22: I 2.36 | C 2.63 | F 2.67 | E 2.85 | M 2.7 | D 2.83 | H 2.87 | N 2.94 | A 2.71 | P 2.96 | G 3.11 | K 2.95 | L 2.12
V21: L 1.91 | W 2.63 | Q 2.81 | I 1.91 | H 2.44 | A 2.71 | N 3.32 | R 3.29 | C 2.58 | G 2.56 | K 3.09 | T 3.05 | D 3.28 | P 2.73 | F 2 | S 2.61 | Y 2.1 | M 1.8 | E 3.17
